Laboratory results reported in paper PMC11079029, “Intramolecular autoinhibition regulates the selectivity of PRPF40A tandem WW domains for proline-rich motifs” (Nature Communications, 2024).

Assays:
Details in all cases: both partners purified
[1] = target: T1, GB1-SF1 Pro CD (residues 539-639) (UniProt Q15637 539-639); assay: ITC; PRPF40A construct (WW12, N-ext-WW12 or its mutant) in the cell, GB1-SF1 or GB1-SF3A1 construct in the syringe (as shown in Supplementary Figures 16 and 21); 25 °C, 20 mM sodium phosphate pH 6.5, 100 mM NaCl; one-site binding model; at least duplicates; affinities apparent
T1 construct: splicing factor 1 (SF1), residues 539-639; His6-GB1-TEV site cassette of the pET24 vector, not cleaved; source: E. coli BL21(DE3), purified (Ni-NTA, SEC); not shown: GB1, N-terminal, kept
T1 sequence (looked up): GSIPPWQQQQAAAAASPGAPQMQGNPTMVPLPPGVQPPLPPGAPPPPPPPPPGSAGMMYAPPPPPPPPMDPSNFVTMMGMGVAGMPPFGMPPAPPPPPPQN

[2] = target: T2, GB1-SF1 Pro BCD (residues 468-639) (UniProt Q15637 468-639); assay: as above
T2 construct: splicing factor 1 (SF1), residues 468-639; His6-GB1-TEV site cassette of the pET24 vector, not cleaved; source: E. coli BL21(DE3), purified (Ni-NTA, SEC); not shown: GB1, N-terminal, kept
T2 sequence (looked up): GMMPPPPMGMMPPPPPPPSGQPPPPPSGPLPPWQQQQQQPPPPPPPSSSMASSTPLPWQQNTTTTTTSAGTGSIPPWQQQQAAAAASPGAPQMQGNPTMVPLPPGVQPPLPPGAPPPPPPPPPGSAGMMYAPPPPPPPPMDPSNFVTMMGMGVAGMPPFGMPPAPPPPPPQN

[3] = target: T3, GB1-SF1 Pro ABCD (residues 410-639) (UniProt Q15637 410-639); assay: as above
T3 construct: splicing factor 1 (SF1), residues 410-639, the complete proline-rich C-terminal region; His6-GB1-TEV site cassette of the pET24 vector, not cleaved; source: E. coli BL21(DE3), purified (Ni-NTA, SEC); not shown: GB1, N-terminal, kept
T3 sequence (looked up): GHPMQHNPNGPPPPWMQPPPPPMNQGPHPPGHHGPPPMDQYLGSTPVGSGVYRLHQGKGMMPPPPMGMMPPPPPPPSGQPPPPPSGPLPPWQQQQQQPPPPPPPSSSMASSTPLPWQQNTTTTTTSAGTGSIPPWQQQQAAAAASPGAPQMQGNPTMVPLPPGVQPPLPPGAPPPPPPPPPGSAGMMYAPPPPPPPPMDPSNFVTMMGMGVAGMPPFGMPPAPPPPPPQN

[4] = target: T4, GB1-SF1 Pro BC (residues 468-594) (UniProt Q15637 468-594); assay: as above
T4 construct: splicing factor 1 (SF1), residues 468-594; His6-GB1-TEV site cassette of the pET24 vector, not cleaved; also called SF1 BC; source: E. coli BL21(DE3), purified (Ni-NTA, SEC); not shown: GB1, N-terminal, kept
T4 sequence (looked up): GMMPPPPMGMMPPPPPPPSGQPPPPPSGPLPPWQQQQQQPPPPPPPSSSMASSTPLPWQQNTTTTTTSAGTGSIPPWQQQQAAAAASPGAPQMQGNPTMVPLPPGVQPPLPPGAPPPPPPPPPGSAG

[5] = target: T5, GB1-SF3A1 C-ter Pro (residues 552-683) (UniProt Q15459 552-683); assay: as above
T5 construct: His6-GB1-TEV site cassette of the pET24 vector, not cleaved; source: E. coli BL21(DE3), purified (Ni-NTA, SEC); not shown: GB1, N-terminal, kept
T5 sequence (looked up): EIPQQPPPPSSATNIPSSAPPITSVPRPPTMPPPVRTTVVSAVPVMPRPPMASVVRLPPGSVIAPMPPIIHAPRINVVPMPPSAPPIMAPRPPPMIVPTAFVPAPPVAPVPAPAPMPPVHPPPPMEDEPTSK

[6] = target: T6, GB1-polyproline peptide P29; assay: ITC; GB1-peptide or GB1-SF1 construct in the cell, PRPF40A WW12 in the syringe (as shown in Supplementary Figures 7 and 16A); 25 °C, 20 mM sodium phosphate pH 6.5, 100 mM NaCl; one-site binding model; at least duplicates; affinities apparent
T6 chain: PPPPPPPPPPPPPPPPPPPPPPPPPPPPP

[7] = target: T7, GB1-SF1 16-mer peptide 565-580; assay: as above
T7 chain: TMVPLPPGVQPPLPPG

B1: PRPF40A WW12 (tandem WW domains, residues 141-236) (domain or fragment, human, UniProt O75400 141-236, looked up)
chain: GAKSMWTEHKSPDGRTYYYNTETKQSTWEKPDDLKTPAEQLLSKCPWKEYKSDSGKPYYYNSQTKESRWAKPKELEDLEGYQNTIVAGSLITKSNL
notes: A few vector residues probably remain at the N-terminus after TEV cleavage (pETM11, NcoI site); 15N-labelled in the NMR experiments; also called PRPF40A WW tandem; WW12 wt; source: E. coli BL21(DE3), purified (Ni-NTA, TEV digestion, reverse Ni-NTA, SEC); not shown: His6, N-terminal, cleaved
B1 was tested, and the Kd [1] was 3.8 ± 0.69 µM, the Kd [2] was 3.65 ± 0.71 µM and the Kd [3] was 4.91 ± 0.51 µM. The Kd [4] was 6.83 ± 2.33 µM, the Kd [5] was 19.3 ± 4.5 µM and the “stoichiometry N” value [6] was 2.47 ± 0.09 sites. For the same binder, the “stoichiometry N” value [7] was 1.06 ± 0.11 sites.
